Measurements published in paper PMC3699631, “Posttranslational Modifications of the Histone 3 Tail and Their Impact on the Activity of Histone Lysine Demethylases In Vitro” (PLoS ONE, 2013).
Entries after “also recorded” stand apart in the source; their conditions may differ.

Molecular target: T1, human FL-KDM4A (Homo sapiens, UniProt O75164)
T1 construct: along with the full length FL- KDM4C and FL-KDM4A using various synthetic histone tail peptides as substrates; His6 (N); made in house; host or cells: High Five (Trichoplusia ni) insect cells, baculovirus
T1 sequence (O75164 1-1064): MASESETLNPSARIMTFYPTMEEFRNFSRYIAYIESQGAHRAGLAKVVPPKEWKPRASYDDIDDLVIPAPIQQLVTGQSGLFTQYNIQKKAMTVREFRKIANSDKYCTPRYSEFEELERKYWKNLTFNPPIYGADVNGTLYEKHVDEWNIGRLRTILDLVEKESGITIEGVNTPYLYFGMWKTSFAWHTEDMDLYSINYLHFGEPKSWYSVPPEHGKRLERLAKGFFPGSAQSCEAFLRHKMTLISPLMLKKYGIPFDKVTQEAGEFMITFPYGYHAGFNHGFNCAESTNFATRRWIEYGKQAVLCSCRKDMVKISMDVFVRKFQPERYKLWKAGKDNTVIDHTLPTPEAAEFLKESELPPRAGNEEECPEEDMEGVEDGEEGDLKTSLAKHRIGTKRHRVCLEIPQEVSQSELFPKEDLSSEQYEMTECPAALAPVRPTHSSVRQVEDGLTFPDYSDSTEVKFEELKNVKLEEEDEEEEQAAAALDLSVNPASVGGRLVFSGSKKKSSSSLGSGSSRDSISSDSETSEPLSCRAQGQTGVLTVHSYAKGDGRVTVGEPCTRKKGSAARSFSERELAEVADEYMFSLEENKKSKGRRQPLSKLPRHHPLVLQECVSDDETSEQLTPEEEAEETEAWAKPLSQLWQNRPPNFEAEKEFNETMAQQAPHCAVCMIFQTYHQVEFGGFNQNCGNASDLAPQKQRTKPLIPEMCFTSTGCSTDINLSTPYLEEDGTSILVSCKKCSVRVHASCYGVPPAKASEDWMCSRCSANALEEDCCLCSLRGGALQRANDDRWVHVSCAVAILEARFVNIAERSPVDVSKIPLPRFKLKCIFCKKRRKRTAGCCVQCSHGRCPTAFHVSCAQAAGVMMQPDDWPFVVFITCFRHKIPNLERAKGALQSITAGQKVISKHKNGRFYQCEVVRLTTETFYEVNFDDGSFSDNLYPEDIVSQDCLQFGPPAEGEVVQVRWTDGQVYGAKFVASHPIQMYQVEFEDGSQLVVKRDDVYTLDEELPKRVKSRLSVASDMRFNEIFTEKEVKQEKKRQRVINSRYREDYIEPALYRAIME
Assay: FDH-assay enzyme kinetics of H3 peptide demethylation, full length KDM4A
Type: biochemical
Parameters: key to K m / k cat / k cat /K m: 0 means no demethylation could be detected
Conditions: for demethylation / catalytic activity (in words) / K m / k cat / k cat /K m: FDH-assay; for K m: 50 mM HEPES (pH 7.5), 50 mM NaCl, 50 µM FeSO4, 500 µM α-KG, 500 µM ascorbate, 2 mM NAD, substrate 10–1000 µM, NADH fluorescence 15–30 minutes; for K m / k cat: triplicate; for k cat: pH 7.5, NADH fluorescence; for k cat /K m: pH 7.5, triplicate
Protocol: The enzyme kinetics were measured using a Formaldehyde DeHydrogenase Assay (FDH-Assay) and the demethylation of substrates was confirmed when possible by MALDI-TOF-MS, see File S1 for details. The test solution contained 50 mM HEPES (pH 7.5), 50 mM NaCl, 50 µM FeSO4, 500 µM α-KG, 500 µM ascorbate, 2 mM NAD, approximately 0.05 unit of FDH and e.g. 4.88 µM KDM4C (enzyme concentration varied between batches). The reference solution was comprised of the same except substrate. The assay was initiated by adding various concentrations of H3 peptide substrates e.g. H3(1–24)K9me3 (10–1000 µM) and the increase in NADH fluorescence was measured over 15–30 minutes in 30 second intervals. Data analysis and kinetic values were obtained using programs Excel and GraphPad Prism® 5.0. For details, see File S1.
The standard deviations for k cat/K m were calculated using the statistic law of propagation of errors. Standard errors for Michaelis-Menten Kinetics were automatically given in GraphPad Prism®, with a 95% confidence interval. All enzyme kinetic curves were done in triplicate unless otherwise stated.
Test for activity of enzyme using the fluorescence FDH assay, determination of Vmax and Km of enzymes with substrate, expression and purification of cc-KDM4A and cc-KDM4C software and parameters for the FDH coupled assay, see Lohse et al.^21
Recombinant baculoviridae encoding the full Open Reading Frame (ORF) of FL-KDM4A and FL-KDM4C were generously donated from the Biotech Research and Innovation Centre (BRIC), University of Copenhagen, Denmark. Recombinant protein was expressed by adding High Titer Stocks to High Five (Trichopulsia ni) insect cells in suspension culture. The cell cultures were harvested by centrifugation after ~ 60 hours and the cells were resuspended in hypotonic buffer (25 mM Hepes-KOH, pH 7.7, 1.5 mM MgCl, 5 mM KCl) supplemented with one protease inhibitor cocktail tablet per 500 ml expression (Roche, EDTA-free). The resuspended cells were frozen at -20 °C.
Both proteins were purified by IMAC using Talon FF (Clontech) cobalt resin according to the following protocol; resuspended cells were thawed on ice, 100 ml hypotonic buffer was added per 500 ml expression volume and the cells were incubated with stirring for 30 min. at 4 °C, followed by a brief (30 s per 500 ml culture volume) sonication. β-mercaptoethanol (BME, 2 mM final concentration), Triton X-100 (0.2 % final concentration) and NaCl (300 mM final concentration) were added and the cell suspension was stirred for another 30 min at 4 °C. The lysate was cleared by centrifugation at 50.000 g for 60 minutes. The cleared lysates were adjusted to 5 mM imidazole and incubated with Talon resin (1 ml /500 ml expression) for 60 minutes. The resin was allowed to sediment, the lysate removed and the resin was transferred to PD-10 gravity flow columns (GE Healthcare). The resin was washed with 10 column volumes of binding buffer (50 mM Hepes-KOH, pH 7.7, 300 mM NaCl, 5 mM imidazole, 10% glycerol, 0.05 % Triton X-100, 2 mM BME) and eluted with 2 x 2.5 ml elution buffer (50 mM Hepes-KOH, pH 7.7, 300 mM NaCl, 100 mM imidazole, 10 % glycerol, 0.05 % Triton X-100, 2 mM BME). Each eluted fraction has its buffer changed to 50 mM Hepes pH 7.5, 300 mM NaCl, 10 % glycerol using a PD-10 desalting column. The protein was concentrated to 6-7 mg/ml (FL-KDM4A) or 10-12 mg/ml (FL-KDM4C). Despite the buffer change it is likely that small amounts of Triton X-100 remained in the protein samples. Triton X-100 has a significant absorbance at 280 nm, so the protein concentration was determined by Bradford assay using a BSA standard curve. The protein purity was approximately 70 % as judged from SDS-PAGE. The concentrated protein was aliquoted and stored at -80 °C until assays were performed.
The standard deviations for kcat/ Km were calculated using the statistic law of propagation of errors. […]

[1] = SD by propagation of errors, unit: (min^−1 * µM^−1) * 10^3

Substance	demethylation / catalytic activity (in words)	K m	k cat	fold increase in k cat/K m (compared to H3(1–24)K9me3)	k cat /K m (figures)	k cat /K m [1]
H3(1–24)K4me3K9me3: bis-tri-methylated substrate, trimethylated K4 in combination with H3K9me3	an increase in FL-KDM4A demethylation activity, which is significantly higher compared to cc-KDM4A	45±9	2.2±0.3	17 fold	50 ± 9 min^-1 * μM^-1 * 10^3	
H3(1–24)K9me2: truncated histone tail, 24 first amino acids from the N-terminus of H3, dimethylated lysine 9	too low to be detected; also recorded: could not be detected	0	0			0
H3(1–24)K9me3: truncated histone tail, 24 first amino acids from the N-terminus of H3, trimethylated lysine 9; control peptide	preference for the H3K9me3 over the H3K9me2	122±31			3 ± 0.4 min^-1 * μM^-1 * 10^3	3.1±0.3
H3(1–24)K9me3T11(ph): H3(1–24)K9me3 with phosphorylation of threonine 11	no detectable turnover	0	0			0
